For 28 molecules, IC50 and Ki results are on record in patent US6355785 (Aronex Pharmaceuticals, Inc.).

Data set [1] concerns the target T1, HIV-1 integrase wild-type (IN1-288) (Human immunodeficiency virus 1, UniProt P12497 P12497:1148-1435). Description: inhibition; both activities 0.120; row misprinted T30745.
Data set [2] addresses T1, HIV-1 integrase wild-type (IN1-288). The experiment in a line: inhibition.
Data set [3] deals with T2, HIV-1 integrase wild-type (IN1-288) (Human immunodeficiency virus 1, UniProt P12497 P12497:1148-1435). Description: inhibition; both activities 0.120. Conditions: intermolecular G4.
The target in data set [4] is T3, HIV-1 reverse transcriptase (Human immunodeficiency virus 1, UniProt P03366;P03366 P03366:600-1159,P03366:600-1039). Description: inhibition.
Data set [5] concerns the target T3, HIV-1 reverse transcriptase. The experiment in a line: inhibition; printed as ID50.
Data set [6] addresses T1, HIV-1 integrase wild-type (IN1-288). Description: inhibition; 3'-process column; strand transfer column 0.055; row misprinted T30745.
The target is the same in data set [7]. Description: inhibition; both activities 0.125.
For data set [8] the target is unchanged. Description: inhibition; 3'-process column; strand transfer column 0.150.
For data set [9], the target named is T2, HIV-1 integrase wild-type (IN1-288). The experiment in a line: inhibition; 3'-process column; strand transfer column 0.060 (headings appear swapped). The settings on record: intermolecular G4.
Data set [10] deals with T4, HIV-1 integrase IN1-212 (C-terminal deletion) (HIV-1, UniProt P04585 P04585:1148-1359).
T4 chain: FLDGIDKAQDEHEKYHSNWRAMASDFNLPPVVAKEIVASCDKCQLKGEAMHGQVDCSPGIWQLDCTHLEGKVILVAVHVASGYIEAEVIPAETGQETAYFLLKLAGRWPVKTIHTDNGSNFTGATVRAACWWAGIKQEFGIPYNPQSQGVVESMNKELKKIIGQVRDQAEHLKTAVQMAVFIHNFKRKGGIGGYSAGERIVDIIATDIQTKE
The experiment in a line: inhibition; disintegration assay, Mn2+, 30 C. The settings on record: intramolecular G4.

For orientation: IC50 means the concentration at which inhibition is half-maximal. The molecule GCGGGGCTCCATGGGGGTCG (structured_DNA, pPT (PS at first and last linkages)) [T30754] had an IC50 in [1] of 120 nM. The molecule GUGGUGGGUGGGUGGGU (ssRNA, pPT (PS at first and last linkages), RNA sugars) [T30661] registered an IC50 in data set [2] of 84 nM. In other words, the double-digit nanomolar range.

GTGGTGGGTGGGTGGGT (structured_DNA, pPT; capital T = C-5 propynyl dU (position 5)) [T30700]: in data set [2], 40 nM corresponded to half-maximal inhibition (IC50). On the same count and under the same terms, in the case of GTGGTGGGTGGGTGGGT (structured_DNA, pPT; N5,N13 = C-5 propynyl dU [n positions 5,13 = modified dU]) [T30702] it was 30 nM. On the same count and under the same terms, under GTGGTGGGTGGGGTGGT (structured_DNA, pPT (PS at first and last linkages)) [T30698] stands 16 nM. Take TGGGAGGTGGGTCTG (structured_DNA, all phosphodiester, DMT at 3' end) [T30747B]: the IC50 in data set [3] was determined as 120 nM. For orientation: Ki means a measure of affinity in units of concentration, obtained from inhibition or displacement. Read a low Ki as a stronger hold on the target. The molecule GATCCATGTCAGTGACAC (ssDNA, PS all linkages, 3'-amine) [1232 random GATC] gave an inhibition constant (Ki) in data set [4] of 560 nM. Besides, 45 nM corresponded to half-maximal inhibition in data set [5] (IC50). GTGGGTGGTGGGGTGGT (structured_DNA, pPT (PS at first and last linkages)) [T30699] showed an IC50 in data set [2] of 50 nM. Still for that read-out and setting: under GTGGTGGGTGGGTGGGT (structured_DNA, pPT; N5 = 5-iodo dU [n positions 5 = modified dU]) [T30576] stands 50 nM. With GTGGCGGGTGGGTGGGT (structured_DNA, pPT) [T30743], half-maximal inhibition in data set [6] (IC50) was put at 60 nM. The molecule TGGGAGGTGGGTCTG (structured_DNA, pPT (PS at first and last linkages)) [T30748] returned an IC50 in data set [7] of 125 nM.

Molecule GTGGCGGGCGGGCGGGT (structured_DNA, pPT) [T30746] gave an IC50 in data set [8] of 150 nM. On to GCGGGGCTCCATGGGGGTCG (structured_DNA, PS pattern g*c*gggc*t*c*c*a*tggggg*t*c*g (as printed in table footnote)) [S935833], for which the IC50 in data set [9] came out at 45 nM. With GTGGGTGGTGGGTGGGT (structured_DNA, pPT (PS at first and last linkages)) [T30696], the concentration for half-maximal inhibition (IC50) in data set [2] came out at 13 nM.

GTGGTGGGCGGGTGGGT (structured_DNA, pPT) [T30744] showed an IC50 in data set [2] of 60 nM.

In the case of GTGGTTGGTGTGGTTGGT (structured_DNA, pPT (PS at first and last linkages)) [T30674], half-maximal inhibition in [2] (IC50) was put at 610 nM. As to GTTGGGGGTTGTTGGTGGGGTGGTGG (ssDNA, phosphodiester, 3'-propanolamine) [I100-00], the Ki in [4] is 370 nM. Half-maximal inhibition in data set [5] (IC50) required 5000 nM. Turning to GTGGTGGGTGGGTGGGT (structured_DNA, pPT; N13 = 5-iodo dU [n positions 13 = modified dU]) [T30578], in [2], 50 nM corresponded to half-maximal inhibition (IC50).

For GTGGTGGGTGGGTTGGT (structured_DNA, pPT (PS at first and last linkages)) [T30678], the IC50 in data set [2] was determined as 120 nM. On the same count and under the same terms, under GTGGTGGGTGGGTGGGT (structured_DNA, pPT; N5,N9,N13 = 5-bromo dU [n positions 5,9,13 = modified dU]) [T30571] stands 50 nM. GTTGGGGGTTGTTGGTGGGGTGGTGG (ssDNA, PS all linkages, 3'-amine) [I100-12] displayed a Ki in [4] of 5 nM. The same molecule returned an IC50 in data set [5] of 15 nM.

In the case of GTGGTGGGTGGGTGGGTGGTGGGTGGTGGTTGTGGGTGGGTGGTG (ssDNA, PS all linkages, 3'-amine) [I100-21], in data set [4], the inhibition constant (Ki) was determined as 1 nM. Moreover, in [5], the midpoint of inhibition, the IC50, lay at 4 nM. Turning to GTGGTGGGTGGGTGGGTGGTGGGTGGTGGTTGTGGGTGGGTGGTG (ssDNA, phosphodiester, 3'-amine) [I100-07], the Ki in data set [4] was determined as 137 nM. The molecule also returned an IC50 in data set [5] of 2500 nM. In data set [2], GTGGTTGGTGTGGTTGG (structured_DNA, pPT (PS at first and last linkages)) [T30673] displayed an IC50 of 600 nM. That is a sub-micromolar value.

GGGTGGGTGGGTGGGTGG (ssDNA, PS all linkages, 3'-amine) [1174] had an inhibition constant (Ki) in [4] of 15 nM. For the same molecule, the IC50 in data set [5] is 15.4 nM. In [2], GTGGTGGGGTGGTGGGT (structured_DNA, pPT (PS at first and last linkages)) [T30697] had an IC50 of 13 nM. For GTGGTGGGTGGGTGGGT (structured_DNA, pPT; N13 = C-5 propynyl dU [n positions 13 = modified dU]) [T30701], 30 nM corresponded to half-maximal inhibition in [2] (IC50). GTGGTGGGTGGGTGGGT (structured_DNA, PS at the terminal 5' and 3' internucleoside linkages) [T30177 (AR177)] displayed an IC50 in data set [10] of 600 nM.
